This note sets out measurements from patent US20210008109A1, “METHODS OF TREATING HEMATOLOGICAL DISORDERS, SOLID TUMORS, OR INFECTIOUS DISEASES USING NATURAL KILLER CELLS” (CELGENE CORPORATION, priority 2014, published 2021).

For the data set, the system named is Daudi cells. Description: Antibody-dependent cellular cytotoxicity (ADCC) of PiNK cells with rituximab, PKH26/TO-PRO-3 FACS. In kind it is cell-based. To be noted: Daudi cells pre-incubated 1 h with rituximab, compared to human IgG isotype control; E:T 50:1, 20:1, 10:1 and 2.5:1; 4 h at 37° C. The method, then:
The experiments presented herein utilize an anti-CD20 antibody, rituximab, and Daudi cells (Cat #: CCL-213, ATCC), which are high expressers of CD20. Daudi cells were harvested and labeled with PKH26 (Cat #: PKH26GL-1KT, Sigma-Aldrich) (Ferlazzo, G., et al., J Immunol, 172: 1455-1462 (2004); Lehmann, D., et al., Stem Cells Dev, 21: 2926-2938 (2012)), whose lipophilic aliphatic residue inserts into cell plasma membrane. The cells were washed and incubated with rituximab (and human IgG as an isotype control) at different concentrations as indicated in FIG. 1 for 1 h at room temperature. After washing three times, 10^4 target cells were placed in 96-well U-bottom tissue culture plates and incubated with cultured NK cells at various effector-target (E:T) ratios (50:1, 20:1, 10:1 and 2.5:1) in 200 μl RPMI 1640 supplemented with 10% FBS. The Cultures were incubated for 4 h at 37° C. in 5% CO2. After incubation, cells were harvested and TO-PRO-3 (Catalog #T3605, Invitrogen), a membrane-impermeable DNA stain, was added to cultures to 0.25 μM final concentration followed by FACS analysis using BD FACSCanto II. Cytotoxicity (“% cytotoxicity” in FIG. 1) is expressed as percentage of dead cells (PKH26^+TO-PRO-3^+) within the total PKH26^+ target tumor cells, subtracted by spontaneous cell death.

In the case of rituximab, the “% cytotoxicity of PiNK cells (dead PKH26+TO-PRO-3+ cells within total PKH26+ target cells, minus spontaneous cell death)” value is “increases the cytotoxicity”.
